Tests used:
[1] = target: T1, UM-Pif1 (unmodified Pif1) (Saccharomyces cerevisiae, UniProt P07271 1-859); assay: BLI
T1 sequence: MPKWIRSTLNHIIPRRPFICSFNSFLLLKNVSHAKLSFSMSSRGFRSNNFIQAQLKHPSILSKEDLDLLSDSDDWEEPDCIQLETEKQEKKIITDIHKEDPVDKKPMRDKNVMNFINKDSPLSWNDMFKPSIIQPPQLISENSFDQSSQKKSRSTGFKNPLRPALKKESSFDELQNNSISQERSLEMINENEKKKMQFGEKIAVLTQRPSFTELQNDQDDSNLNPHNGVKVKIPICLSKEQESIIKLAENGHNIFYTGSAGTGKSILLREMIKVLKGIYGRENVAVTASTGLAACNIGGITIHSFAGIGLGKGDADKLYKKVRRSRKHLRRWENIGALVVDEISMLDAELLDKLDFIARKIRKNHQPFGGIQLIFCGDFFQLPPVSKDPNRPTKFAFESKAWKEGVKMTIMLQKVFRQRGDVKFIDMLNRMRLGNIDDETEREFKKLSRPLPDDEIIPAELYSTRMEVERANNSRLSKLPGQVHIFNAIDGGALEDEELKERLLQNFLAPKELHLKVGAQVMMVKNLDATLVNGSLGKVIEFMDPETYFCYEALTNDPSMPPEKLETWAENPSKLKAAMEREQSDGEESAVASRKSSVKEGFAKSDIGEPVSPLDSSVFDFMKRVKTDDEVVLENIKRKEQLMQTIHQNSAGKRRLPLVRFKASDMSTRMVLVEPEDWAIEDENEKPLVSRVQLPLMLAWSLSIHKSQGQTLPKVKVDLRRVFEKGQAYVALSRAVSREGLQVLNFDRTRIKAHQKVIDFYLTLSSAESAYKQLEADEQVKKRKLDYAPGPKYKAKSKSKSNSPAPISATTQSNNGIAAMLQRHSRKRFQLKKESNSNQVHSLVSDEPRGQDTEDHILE

UM-Pif1ΔN (unmodified) = target: T2, UM-Pif1ΔN (unmodified) (Saccharomyces cerevisiae, UniProt P07271 234-859, del1-233); assay: BLI
T2 sequence: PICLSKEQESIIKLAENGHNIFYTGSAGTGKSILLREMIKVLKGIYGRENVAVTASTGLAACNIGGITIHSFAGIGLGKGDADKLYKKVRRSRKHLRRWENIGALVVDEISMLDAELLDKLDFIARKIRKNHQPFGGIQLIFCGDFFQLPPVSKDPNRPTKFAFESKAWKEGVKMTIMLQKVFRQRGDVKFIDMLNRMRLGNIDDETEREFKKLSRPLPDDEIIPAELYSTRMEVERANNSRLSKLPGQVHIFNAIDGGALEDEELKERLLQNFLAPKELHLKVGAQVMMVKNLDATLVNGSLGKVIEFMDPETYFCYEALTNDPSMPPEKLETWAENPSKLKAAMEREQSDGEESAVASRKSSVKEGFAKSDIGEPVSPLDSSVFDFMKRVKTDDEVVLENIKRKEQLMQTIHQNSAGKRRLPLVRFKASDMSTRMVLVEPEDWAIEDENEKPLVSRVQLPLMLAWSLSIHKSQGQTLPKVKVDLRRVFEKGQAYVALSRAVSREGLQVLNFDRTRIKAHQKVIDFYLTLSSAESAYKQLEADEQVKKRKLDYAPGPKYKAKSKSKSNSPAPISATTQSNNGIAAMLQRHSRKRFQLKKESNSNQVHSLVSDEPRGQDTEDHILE

B1: T1 45-nt ssDNA (ssDNA)
DNA: TTTTTTTTTTTTTTTTTTTTTTTTTGTGTCACTCACATAGCGTTC
Kd [1]: 19.1 ± 5.1 nM
Kd (UM-Pif1ΔN (unmodified)): 14.1 ± 1.5 nM
